Results: patent US20260356924 (published 2026)

T1: Tau409-426 pS416 pS422 peptide (human)
T1 chain: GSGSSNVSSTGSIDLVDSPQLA

T2: Tau409-426 6-phospho peptide (human, not fully specified)
T2 chain: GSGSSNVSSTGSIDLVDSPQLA

T3: Tau409-426 pS422 peptide (human)
T3 chain: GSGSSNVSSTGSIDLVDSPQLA

T4: tau peptide 413-430 (human, phosphorylation not given)
T4 chain: STGSIDMVDSPQLATLAD


Tests used:
iPHF [1] = molecular target: T5, iPHF (human, UniProt P10636); assay: BLI
iPHF [2] = molecular target: T5, iPHF; assay: SPR, KD2
iPHF [3] = molecular target: T5, iPHF; assay: SPR, KD1
[4] = molecular target: T1, Tau409-426 pS416 pS422 peptide; assay: ELISA
[5] = molecular target: T2, Tau409-426 6-phospho peptide; assay: ELISA
Tau409-426 pS422 peptide = molecular target: T3, Tau409-426 pS422 peptide; assay: ELISA
tau peptide 413-430 = molecular target: T4, tau peptide 413-430
iPHF [6] = molecular target: T5, iPHF; assay: SPR

T5 sequence (P10636 2-758): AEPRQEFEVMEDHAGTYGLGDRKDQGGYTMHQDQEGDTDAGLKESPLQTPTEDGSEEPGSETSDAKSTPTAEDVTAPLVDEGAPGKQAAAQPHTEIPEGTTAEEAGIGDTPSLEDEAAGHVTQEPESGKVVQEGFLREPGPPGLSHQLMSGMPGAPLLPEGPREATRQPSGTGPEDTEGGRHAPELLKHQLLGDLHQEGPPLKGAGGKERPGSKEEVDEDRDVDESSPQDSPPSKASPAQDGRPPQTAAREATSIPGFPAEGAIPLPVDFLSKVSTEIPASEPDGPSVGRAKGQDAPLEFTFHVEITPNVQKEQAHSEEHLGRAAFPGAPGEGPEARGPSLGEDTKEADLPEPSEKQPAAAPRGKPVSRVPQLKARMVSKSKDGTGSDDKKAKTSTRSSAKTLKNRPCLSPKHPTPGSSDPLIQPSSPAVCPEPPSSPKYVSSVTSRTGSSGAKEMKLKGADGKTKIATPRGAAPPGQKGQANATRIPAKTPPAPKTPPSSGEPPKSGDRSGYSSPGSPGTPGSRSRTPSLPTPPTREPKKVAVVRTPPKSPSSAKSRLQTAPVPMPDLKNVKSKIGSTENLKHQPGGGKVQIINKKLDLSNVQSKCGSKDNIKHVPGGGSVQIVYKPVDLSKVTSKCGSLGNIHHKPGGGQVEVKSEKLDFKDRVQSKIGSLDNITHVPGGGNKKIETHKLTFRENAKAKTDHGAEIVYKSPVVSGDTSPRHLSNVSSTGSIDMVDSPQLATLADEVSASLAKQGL

Binder | Kd (iPHF [1]) [nM] | Kd (iPHF [2]) [nM] | Kd (iPHF [3]) [nM] | EC50 [4] [nM] | EC50 [5] [nM] | EC50 (Tau409-426 pS422 peptide) [nM] | Kd (tau peptide 413-430) [nM] | Kd (iPHF [6]) [nM]
V0022 (antibody, V domains shown, immunopurified paired helical filament tau, hyperphosphorylated) VH: QVQLQQPGTELVKPGSSVNLSCKASGFTFTRYWMHWVKERPGHGLEWIGNINPNNGGTDFNEKFKNKATLTVHKSSTTVFIQLSSLTSEDSAVYYCARGTGTGAMDYWGQGTSVTVSS VL: DVVMTQTPLSLPVSLGDQASISCRSSQSLVHNNGITYLYWYLQKPGQSPKLLIYRVSNRFSGVPDRFGGSGSGTDFTLKISRVEAEDLGVYFCFQGTHVPRTFGGGTKLEIK | 0.3 | – | – | – | – | – | – | 0.0439
V0022 (antibody, V domains shown) VH: QVQLQQPGTELVKPGSSVNLSCKASGFTFTRYWMHWVKERPGHGLEWIGNINPNNGGTDFNEKFKNKATLTVHKSSTTVFIQLSSLTSEDSAVYYCARGTGTGAMDYWGQGTSVTVSS VL: DVVMTQTPLSLPVSLGDQASISCRSSQSLVHNNGITYLYWYLQKPGQSPKLLIYRVSNRFSGVPDRFGGSGSGTDFTLKISRVEAEDLGVYFCFQGTHVPRTFGGGTKLEIK | – | – | – | 0.283 | 0.302 | 0.288 | 0.306 | –
V0009 (antibody, V domains shown, immunopurified paired helical filament tau, hyperphosphorylated) VH: EVQLVESGGALVQPGGSLSLSCAASGFTFTDYYMSWVRQPPGKALEWLALIRNKAKGFTTEYSASVKGRFTISRDNSQSILLFQMNDLRADDSATYYCVRDINYWGQGTTLTVSS VL: not shown | 0.2 | – | – | – | – | – | – | 0.296

The remaining lines, values ahead:

Kd (iPHF [1]) [nM] | Kd (iPHF [2]) [nM] | Kd (iPHF [3]) [nM] | EC50 [4] [nM] | EC50 [5] [nM] | EC50 (Tau409-426 pS422 peptide) [nM] | Kd (tau peptide 413-430) [nM] | Kd (iPHF [6]) [nM] | Binder
0.6 | 2.64 | 4.46 | – | – | – | – | – | V0052 (antibody, V domains shown, immunopurified paired helical filament tau, hyperphosphorylated) VH: not shown VL: SIVMTQTPKFLLVSAGDRVTITCKASQSVSNDVAWYQQKPGQSPKLLIYYASNRCTGVPDRFTGSGYGTDFTFTISTVQAEDLAVYFCQQDYRSPLTFGAGTKLELK
– | – | – | 0.22 | 0.222 | 0.233 | 0.225 | – | V0024 (antibody, V domains shown) VH: QVQLQQPGTELVKPGASVKLSCKASGYTFTRFWMHWVKQRPGQGLEWIGNINPNNGGTDNNERFKSKATLTVDRSSSTAYMQLSSLTSEDSAVYYCARGTGTGAMDYWGQGTSVTVSS VL: DVVMTQTPLSLPVSLGDQASISCRSSQSLVHSNGNTHLYWYLQKPGQSPKLLIYRVSSRFSGVPDRFSGSGSGTDFTLKISRVEAEDLGVYFCFQGTHVPRTFGGGTKLEIK
4 | – | – | – | – | – | – | 0.0578 | V0023 (antibody, V domains shown, immunopurified paired helical filament tau, hyperphosphorylated) VH: QVQLQQPGTELVKPGASVKLSCKASGYTFTIFWMHWVKQRPGHGLEWIGKINPNNGGGDYNEKFKSKATLTVDKSSTTAYLQLSSLTSEDSAVYYCARGTGTGAMDYWGQGTSVTVSS VL: DVVMTQTPLSLPVSLGDHASISCRSSQSLVHSNGITHLYWYLQRPGQTPKLLIYRVSNRFSGVPDRFSGSGSGTDFTLKISSVEAEDLGVYFCFQGTHVPRTFGGGTKLEIE
– | – | – | 0.252 | 0.217 | 0.234 | 0.207 | – | V0023 (antibody, V domains shown) VH: QVQLQQPGTELVKPGASVKLSCKASGYTFTIFWMHWVKQRPGHGLEWIGKINPNNGGGDYNEKFKSKATLTVDKSSTTAYLQLSSLTSEDSAVYYCARGTGTGAMDYWGQGTSVTVSS VL: DVVMTQTPLSLPVSLGDHASISCRSSQSLVHSNGITHLYWYLQRPGQTPKLLIYRVSNRFSGVPDRFSGSGSGTDFTLKISSVEAEDLGVYFCFQGTHVPRTFGGGTKLEIE
